# Laboratory results taken from patent US20070287665A1 (SOCIETE DE CONSEILS DE RECHERCHES ET D APPLICATIONS …, published 2007).
# Bridge positions count the residues as written; N and C are the ends. Square brackets hold non-standard residues; d marks the D form. Ends that are not written are not given here. dDip = N[C@@H](C(=O)O)C(c1ccccc1)c1ccccc1; Phe(4-Cl) = N[C@@H](Cc1ccc(Cl)cc1)C(=O)O; Phe(4-F) = N[C@@H](Cc1ccc(F)cc1)C(=O)O; 3Pal = N[C@@H](Cc1cccnc1)C(=O)O; Tle = CC(C)(C)[C@H](N)C(=O)O; Nal = naphthylalanine
# T1: U-II receptors (rat thoracic aorta tissue) (rat, UniProt P49684 1-386)
# T1 sequence (looked up): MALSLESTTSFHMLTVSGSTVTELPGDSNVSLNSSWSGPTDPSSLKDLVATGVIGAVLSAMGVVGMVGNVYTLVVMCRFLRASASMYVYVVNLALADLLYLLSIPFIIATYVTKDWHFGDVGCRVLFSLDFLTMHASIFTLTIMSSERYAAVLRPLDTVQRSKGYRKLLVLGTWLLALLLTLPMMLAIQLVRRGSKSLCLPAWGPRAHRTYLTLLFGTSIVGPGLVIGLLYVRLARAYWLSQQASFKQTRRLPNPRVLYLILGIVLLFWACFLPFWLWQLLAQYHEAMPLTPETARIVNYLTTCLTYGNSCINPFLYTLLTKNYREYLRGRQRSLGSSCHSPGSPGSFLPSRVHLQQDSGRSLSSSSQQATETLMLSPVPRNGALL
# Experiments:
# [1] = molecular target: U-II receptors (rat thoracic aorta tissue) (rat) (UniProt P49684); experiment: cell-based or functional assay
# [2] = molecular target: U-II receptors (rat thoracic aorta tissue) (rat) (UniProt P49684); experiment: method not described; presumably binding to rat aorta tissue / U-II receptors
# [3] = molecular target: T1, U-II receptors (rat thoracic aorta …); experiment: cell-based or functional assay
# [4] = molecular target: T1, U-II receptors (rat thoracic aorta …); experiment: cell-based or functional assay; remark: listed apart in the source
Molecule,SRIF Antagonist IC50s (nM) against U-II Stimulation of Rat Aorta Phasic Contractions [3] [nM],other results
Cpa-c[D-Cys-Pal-D-Trp-Lys-Val-Cys]-Cpa-amide (peptide),–,IC50 against U-II-induced phasic contractions in circular rat thoracic aorta strips [1]: 100 nM; Kd [2]: 240 nM
[Nal][dC]H[dW]KVC[dDip]-NH2 (disulfide 2-7 (inferred)) [Nal-D-Cys-His-D-Trp-Lys-Val-Cys-D-Dip-NH2],1800,–
[Phe(4-Cl)][dC]FWKTCV-NH2 (disulfide 2-7; N-terminus assumed; SMILES CC(C)[C@H](NC(=O)[C@@H]1CSSC[C@@H](NC(=O)[C@@H](N)Cc2ccc(Cl)cc2)C(=O)N[C@@H](Cc2ccccc2)C(=O)N[C@@H](Cc2c[nH]c3ccccc23)C(=O)N[C@@H](CCCCN)C(=O)N[C@@H]([C@@H](C)O)C(=O)N1)C(N)=O) [Cpa-c[D-Cys-Phe-Trp-Lys-Thr-Cys]-Val-NH2],–,IC50 against U-II-induced phasic contractions in circular rat thoracic aorta strips [4]: 2 nM
[Phe(4-Cl)][dC][3Pal]WKTC[Phe(4-Cl)]-NH2 (disulfide 2-7 (inferred)) [Cpa-D-Cys-Pal-Trp-Lys-Thr-Cys-Cpa-NH2],2,–
[Phe(4-F)][dC][3Pal][dW]KVC[Nal]-NH2 (disulfide 2-7 (inferred)) [4Fpa-D-Cys-Pal-D-Trp-Lys-Val-Cys-Nal-NH2],1090,–
[Phe(4-Cl)][dC][3Pal][dW]K[Tle]C[Nal]-NH2 (disulfide 2-7 (inferred)) [Cpa-D-Cys-Pal-D-Trp-Lys-Tle-Cys-Nal-NH2],10,–
[Phe(4-F)][dC][3Pal][dW]K[Tle]C[Nal]-NH2 (disulfide 2-7 (inferred)) [4Fpa-D-Cys-Pal-D-Trp-Lys-Tle-Cys-Nal-NH2],100,–
XXYXKTCX (Cpa (p-chlorophenylalanine) at 1; D-Cys at 2; D-Trp at 4; Nal (naphthylalanine) at 8; C-terminal amide) [Cpa-D-Cys-Tyr-D-Trp-Lys-Thr-Cys-Nal-NH2],12,–
